The labels stand for the following.
T1: preformed IL-17RB-IL-25 complex (IL-25 captured by immobilised IL-17RB) (UniProt Q9NRM6 18-292; Q9H293 33-177, biotin on the C-terminal BirA ligase tag)
T1 construct: extracellular domain;mature; One receptor with one cytokine dimer, assembled stepwise on the SPR chip; not shown: C-terminal BirA ligase tag
T1 sequence 1: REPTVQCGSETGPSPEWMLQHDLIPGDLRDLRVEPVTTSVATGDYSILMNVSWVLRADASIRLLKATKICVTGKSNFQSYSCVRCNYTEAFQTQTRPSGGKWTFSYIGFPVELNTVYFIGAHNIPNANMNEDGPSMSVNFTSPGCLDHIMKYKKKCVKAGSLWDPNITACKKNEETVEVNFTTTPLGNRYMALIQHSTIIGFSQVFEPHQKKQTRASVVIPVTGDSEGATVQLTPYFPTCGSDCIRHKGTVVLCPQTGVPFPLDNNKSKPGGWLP
T1 sequence 2: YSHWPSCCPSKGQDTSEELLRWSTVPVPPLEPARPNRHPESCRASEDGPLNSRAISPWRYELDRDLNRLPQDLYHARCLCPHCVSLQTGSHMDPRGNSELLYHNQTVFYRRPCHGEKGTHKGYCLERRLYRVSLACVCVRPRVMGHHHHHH

B1: IL-17RC extracellular domain (receptor, UniProt Q8NAC3 21-538, looked up)
chain: LERLVGPQDATHCSPVSLEPWGDEERLRVQFLAQQSLSLAPVTAATARTALSGLSGADGRREERGRGKSWVCLSLGGSGNTEPQKKGLSCRLWDSDILCLPGDIVPAPGPVLAPTHLQTELVLRCQKETDCDLCLRVAVHLAVHGHWEEPEDEEKFGGAADSGVEEPRNASLQAQVVLSFQAYPTARCVLLEVQVPAALVQFGQSVGSVVYDCFEAALGSEVRIWSYTQPRYEKELNHTQQLPDCRGLEVWNSIPSCWALPWLNVSADGDNVHLVLNVSEEQHFGLSLYWNQVQGPPKPRWHKNLTGPQIITLNHTDLVPCLCIQVWPLEPDSVRTNICPFREDPRAHQNLWQAARLQLLTLQSWLLDAPCSLPAEAALCWRAPGGDPCQPLVPPLSWENVTVDKVLEFPLLKGHPNLCVQVNSSEKLQLQECLWADSLGPLKDDVLLLETRGPQDNRSLCALEPSGCTSLPSKASTRAARLGEYLLQDLQSGQCLQLWDDDLGALWACPMDKYIHKR
notes: extracellular domain; biotinylated when immobilised
B2: IL-17RB extracellular domain (receptor, UniProt Q9NRM6 18-292, looked up)
chain: T1 sequence 1
notes: extracellular domain; biotinylated when immobilised on the SPR chip
B3: IL-17F (ligand, human)
chain: RKIPKVGHTFFQKPESCPPVPGGSMKLDIGIINENQRVSMSRNIESRSTSPWNYTVTWDPNRYPSEVVQAQCRNLGCINAQGKEDISMNSVPIQQETLVVRRKHQGCSVSFQLEKVLVTVGCTCVTPVIHHVQHHHHHH
notes: mature; For the crystal the His tag was removed with carboxypeptidase A and the complex was lysine-methylated; For SPR the cytokine carried the C-terminal hexa-His tag; also called IL-17F homodimer
B4: IL-25 (ligand)
chain: T1 sequence 2
notes: mature; The form 'mature' is inferred from secretion; also called IL-17E

Assay [1] concerns the target T2, preformed IL-17RA-IL-17A complex (IL-17A captured by immobilised IL-17RA) (human, UniProt Q16552 24-155).
T2 construct: mature; One receptor with one cytokine dimer, assembled stepwise on the SPR chip; not shown: C-terminal BirA ligase tag
Kind of assay: SPR, second receptor injected over IL-17A captured on immobilised IL-17RA. From the text:
(§1) This strategy involved immobilizing one receptor on a SPR chip at a low coupling density in order to minimize possible homo-dimerization (e.g. cross-linking) of the receptors on the chip. The dimeric IL-17 cytokine was then captured by this receptor so that each receptor would be bound to one dimeric IL-17 ligand, leaving an exposed and accessible second receptor-binding site. The second receptor was subsequently passed over the preformed receptor-cytokine complexes to measure the affinity of the second receptor-binding event. In this fashion, the complex was assembled in a stepwise manner and each of the binding affinities was measured (FIG. 3).
(§2) Binding affinities were calculated via surface plasmon resonance (SPR) on a Biacore® T100 (GE Healthcare). C-terminally biotinylated IL-17 receptors were coupled to immobilized streptavidin on either an SA or CM4-sensor chip (GE Healthcare). An irrelevant, biotinylated protein was captured at equivalent immobilization densities to control flow cells. To measure the second receptor binding interaction, the cytokine was first captured to the immobilized receptor, followed by the second receptor injection. Low coupling densities (200-400 RU) and excess cytokine concentrations were used to optimize the number of cytokine homodimers bound to a single receptor. […] Data was analyzed using Biacore® T100 evaluation software Version 2.0 (GE Healthcare). […]

The target of assay [2] is T3, preformed IL-17RC-IL-17A complex (IL-17A captured by immobilised IL-17RC) (UniProt Q8NAC3 21-538; Q16552 24-155, biotin on the C-terminal BirA ligase tag).
T3 construct: extracellular domain;mature; One receptor with one cytokine dimer, assembled stepwise on the SPR chip; also called existing IL-17RC-IL-17A complex; not shown: C-terminal BirA ligase tag
T3 sequence (Q16552 other isoform, or with tags, fused parts or gaps): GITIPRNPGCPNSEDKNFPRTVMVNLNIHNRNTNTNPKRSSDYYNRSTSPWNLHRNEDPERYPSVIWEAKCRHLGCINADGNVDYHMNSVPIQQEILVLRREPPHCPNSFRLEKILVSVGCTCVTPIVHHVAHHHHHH
Kind of assay: SPR, second receptor injected over IL-17A captured on immobilised IL-17RC.
Excerpt: as §1, §2

Assay [3] has as its target T1, preformed IL-17RB-IL-25 complex (IL-25 …). Kind of assay: SPR; second receptor injected over IL-25 captured on immobilised IL-17RB. On the procedure:
(§3) To examiner whether IL-17RA may only specifically bind IL-25 once IL-25 is captured by IL-17RB, IL-17RB was immobilized on an SPR chip, IL-25 was passed over this chip and the affinity of IL-17RA for the IL-17RB-IL-25 complex was measured. […] At concentrations up to 50 μM, no interaction could be observed between IL-17RA and IL-25, or between the IL-17RB-IL-25 complex and a second IL-17RB molecule.
(§4) Binding affinities were calculated via surface plasmon resonance (SPR) on a Biacore® T100 (GE Healthcare). C-terminally biotinylated IL-17 receptors were coupled to immobilized streptavidin on either an SA or CM4-sensor chip (GE Healthcare). An irrelevant, biotinylated protein was captured at equivalent immobilization densities to control flow cells. To measure the second receptor binding interaction, the cytokine was first captured to the immobilized receptor, followed by the second receptor injection. Low coupling densities (200-400 RU) and excess cytokine concentrations were used to optimize the number of cytokine homodimers bound to a single receptor. The surface was regenerated using 3 M MgCl2 between each cycle. For kinetic experiments, a flow rate of 50 μl/min was used. Data was analyzed using Biacore® T100 evaluation software Version 2.0 (GE Healthcare). Affinities are reported as the mean of at least two independent experiments±the standard error of the mean (s.e.m.).

The target in assay [4] is B1. Kind of assay: SPR, biotinylated receptor on streptavidin chip, cytokine injected. On the procedure:
as §4

The target of assay [5] is B2. Kind of assay: SPR, IL-25 captured on immobilised IL-17RB. The protocol:
as §3, §4

T2 sequence (Q16552 other isoform, or with tags, fused parts or gaps): as above

Take B1: the Kd came out at 174 nM in assay [1] and 8000 nM in assay [2]. On to B2, for which the binding result in assay [3] was “no binding (tested: up to 50 µM)”. Regarding B3, in assay [4], the Kd came to 4.4 nM. That is a single-digit nanomolar value. On to B4, for which the binding result in assay [5] is listed as “binds”.

The values above are taken from patent US20140105855A1 (published 2014).
